In this assay the target is Myc-tagged PER2 (transfected in JEG3 cells) (UniProt O54943 1-1257, limits assumed). In words: coimmunoprecipitation with FLAG antibody from cotransfected JEG3 cells, Western with anti-Myc (FIG. 5A). As to the method:
(A) JEG3 cells were cotransfected with a series of expression vectors as described. Flag-tagged SIRT1 proteins were immunoprecipitated by FLAG antibody, and abundance of coimmunoprecipitated proteins was determined by western blotting using anti-Myc antibody (top right panel) and anti-SIRT1 antibody (bottom right panel). Left panels show the immunoblotting results of total cell lysates as an input.

Chain of Myc-tagged PER2 (transfected in JEG3 cells) (O54943 whole entry): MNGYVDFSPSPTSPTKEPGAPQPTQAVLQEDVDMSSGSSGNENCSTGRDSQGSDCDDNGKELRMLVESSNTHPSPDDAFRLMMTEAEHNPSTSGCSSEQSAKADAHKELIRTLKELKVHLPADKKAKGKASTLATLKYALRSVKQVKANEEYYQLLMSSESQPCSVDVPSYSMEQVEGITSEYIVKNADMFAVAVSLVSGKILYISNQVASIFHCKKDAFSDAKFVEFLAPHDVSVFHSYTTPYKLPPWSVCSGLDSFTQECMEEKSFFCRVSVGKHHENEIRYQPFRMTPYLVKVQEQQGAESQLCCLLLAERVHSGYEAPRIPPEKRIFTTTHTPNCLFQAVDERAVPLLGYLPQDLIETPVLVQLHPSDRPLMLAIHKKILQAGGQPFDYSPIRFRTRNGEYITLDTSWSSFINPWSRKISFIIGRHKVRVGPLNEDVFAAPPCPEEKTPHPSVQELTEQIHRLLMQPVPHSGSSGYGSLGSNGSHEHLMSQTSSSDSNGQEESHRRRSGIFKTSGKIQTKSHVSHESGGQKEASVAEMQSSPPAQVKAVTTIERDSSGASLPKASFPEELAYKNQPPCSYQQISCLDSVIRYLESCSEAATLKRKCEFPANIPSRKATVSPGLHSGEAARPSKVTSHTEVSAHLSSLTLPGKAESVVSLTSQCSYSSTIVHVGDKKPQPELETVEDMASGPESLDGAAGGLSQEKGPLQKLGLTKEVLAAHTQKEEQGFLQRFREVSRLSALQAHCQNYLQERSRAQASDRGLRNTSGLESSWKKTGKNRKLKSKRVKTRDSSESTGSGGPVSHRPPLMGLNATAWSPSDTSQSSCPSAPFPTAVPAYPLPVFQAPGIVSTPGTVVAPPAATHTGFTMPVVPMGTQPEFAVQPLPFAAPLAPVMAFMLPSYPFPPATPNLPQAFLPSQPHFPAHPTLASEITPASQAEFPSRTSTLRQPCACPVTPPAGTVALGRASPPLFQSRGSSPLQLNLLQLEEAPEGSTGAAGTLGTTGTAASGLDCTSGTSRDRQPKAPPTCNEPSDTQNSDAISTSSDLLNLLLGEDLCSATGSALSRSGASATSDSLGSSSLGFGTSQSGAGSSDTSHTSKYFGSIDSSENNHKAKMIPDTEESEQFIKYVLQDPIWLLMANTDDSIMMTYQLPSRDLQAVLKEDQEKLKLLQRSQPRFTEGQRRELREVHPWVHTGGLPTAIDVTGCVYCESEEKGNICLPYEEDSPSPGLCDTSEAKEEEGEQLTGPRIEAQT

B1: Flag-tagged SIRT1 (transfected in JEG3 cells) (enzyme, mouse, UniProt Q923E4 1-737, looked up, not shown: small tags and cut ends)
chain: MADEVALALQAAGSPSAAAAMEAASQPADEPLRKRPRRDGPGLGRSPGEPSAAVAPAAAGCEAASAAAPAALWREAAGAAASAEREAPATAVAGDGDNGSGLRREPRAADDFDDDEGEEEDEAAAAAAAAAIGYRDNLLLTDGLLTNGFHSCESDDDDRTSHASSSDWTPRPRIGPYTFVQQHLMIGTDPRTILKDLLPETIPPPELDDMTLWQIVINILSEPPKRKKRKDINTIEDAVKLLQECKKIIVLTGAGVSVSCGIPDFRSRDGIYARLAVDFPDLPDPQAMFDIEYFRKDPRPFFKFAKEIYPGQFQPSLCHKFIALSDKEGKLLRNYTQNIDTLEQVAGIQRILQCHGSFATASCLICKYKVDCEAVRGDIFNQVVPRCPRCPADEPLAIMKPEIVFFGENLPEQFHRAMKYDKDEVDLLIVIGSSLKVRPVALIPSSIPHEVPQILINREPLPHLHFDVELLGDCDVIINELCHRLGGEYAKLCCNPVKLSEITEKPPRPQKELVHLSELPPTPLHISEDSSSPERTVPQDSSVIATLVDQATNNNVNDLEVSESSCVEEKPQEVQTSRNVENINVENPDFKAVGSSTADKNERTSVAETVRKCWPNRLAKEQISKRLEGNQYLFVPPNRYIFHGAEVYSDSEDDVLSSSSCGSNSDSGTCQSPSLEEPLEDESEIEEFYNGLEDDTERPECAGGSGFGADGGDQEVVNEAIATRQELTDVNYPSDKS
notes: The plasmid list holds a mouse N-terminal FLAG construct and also Flag-hSIRT1/pECE, so the species used in these experiments is not certain; also called Flag-SIRT1
In the case of B1, the binding result is “no binding”.
